Seven molecules from patent US20220380459A1 (DRAGONFLY THERAPEUTICS, published 2022) can be followed below.

The target of test [1] is T1, human CD33 expressed on cells (human, UniProt P20138 18-364).
T1 construct: endogenous CD33 of human AML cell lines and blood monocytes; also called cell-expressed CD33 (Molm-13, Mv4-11, monocytes)
In words: flow cytometry on Molm-13 cells, fluorophore-conjugated anti-human IgG secondary antibody, MFI as fold over background (FOB). A general note: Flow cytometry measures light scatter and fluorescence of single cells or particles in a stream.
Procedure: Binding of the TriNKET was detected using a fluorophore conjugated anti-human IgG secondary antibody. Cells were analyzed by flow cytometry, binding MFI to cell expressed CD33 was normalized to secondary antibody controls to obtain fold over background values.

Test [2] has as its target T1, human CD33 expressed on cells. Described as above. The source holds these as a separate data set.
Procedure: (§1) The cells were analyzed by flow cytometry, and fold over background values were calculated by normalizing binding MFI to the MFI of a control group in which the cells were incubated with the secondary antibody only.
For test [3] the target is unchanged. In words: flow cytometry on Mv4-11 cells, fluorophore-conjugated anti-human IgG secondary antibody, MFI as fold over background (FOB).
Procedure: as §1
Test [4] concerns the target T2, human CD33 extracellular domain (human, UniProt P20138 18-259).
T2 construct: soluble monomeric ECD; also called human CD33 ECD; hCD33
In words: SPR, Fab captured, 37C. For orientation: SPR reads the build-up and loss of mass on a sensor chip optically.
Procedure: (§2) Kinetics and affinity of a series of Fab fragments of anti-CD33 antibodies with different CD33 variants (human CD33 ECD, cyno CD33 ECD, V-domain of human CD33, C-domain or human CD33 and selected CD33 SNPs) were assessed by surface plasmon resonance using Biacore 8K instrument (GE Healthcare). Anti-Fab antibody was immobilized on a CMS chip using standard amine coupling chemistry. CD33 FABs were captured on the anti-Fab chip at a density of ˜100 RU. Solutions containing different concentrations of soluble monomeric CD33 or its domains were injected over the captured FABs and control surfaces at 30 μl/min at 37° C. Surfaces were regenerated between cycles by quick injection of 10 mM glycine, pH 1.8. To obtain kinetic rate constants double-referenced data were fit to a 1:1 interaction model using Biacore 8K Evaluation software (GE Healthcare). The equilibrium binding constant KD was determined by the ratio of binding rate constants kd/kₐ.
(§3) Affinity of 29 Fab fragments binding to human and cyno CD33 ECD were assayed by Biacore analysis.

Test [5] concerns the target T2, human CD33 extracellular domain. In words: SPR, Fab captured, 37C. This is another data set of the same source.
Procedure: as §2, §3
Test [6] concerns the target T3, cyno CD33 extracellular domain (Cynomolgus/Rhesus (cyno)).
T3 construct: soluble monomeric ECD; also called cyno CD33 ECD
In words: SPR, Fab captured, 37C.
Procedure: as §2, §3

Test [7] has as its target T2, human CD33 extracellular domain. In words: SPR, Fab captured, 37C. This is another data set of the same source.
In the next test the target is T4, V domain of human CD33 (human, UniProt P20138 18-139, limits assumed).
T4 construct: recombinant, fully glycosylated V domain; also called Human CD33 V domain
In words: SPR, Fab captured, 37C.

Test [8] has as its target T2, human CD33 extracellular domain. In words: SPR, Fab captured, 37C. The source holds these as a separate data set.
Procedure: as §2
A further test concerns the target T5, C domain of human CD33 (human, UniProt P20138 140-259, limits assumed).
T5 construct: recombinant C domain
In words: SPR, Fab captured, 37C.

Like-named read-outs stand apart in the source and are kept apart here.

Procedure for C domain of human CD33: as §2

B1: C26.I35 (bispecific antibody)
NKG2D-binding VH: QVQLQQWGAGLLKPSETLSLTCAVYGGSFSGYYWSWIRQPPGKGLEWIGEIDHSGSTNYNPSLKSRVTISVDTSKNQFSLKLSSVTAADTAVYYCARARGPWSFDPWGQGTLVTVSS
NKG2D-binding VL: DIQMTQSPSTLSASVGDRVTITCRASQSISSWLAWYQQKPGKAPKLLIYKASSLESGVPSRFSGSGSGTEFTLTISSLQPDDFATYYCQQYGSFPITFGGGTKVEIK
CD33-binding VH: QLQLQESGPGLVKPSETLSLTCTVSGGSISSTDYYWGWIRQPPGKGLEWIGSIGYSGTYYNPSLKSRVTISVDTSKNQFSLKLSSVTAADTAVYYCARETAHDVHGMDVWGQGTTVTVSS
CD33-binding VL: EIVLTQSPATLSLSPGERATLSCRASHSVYSYLAWYQQKPGQAPRLLIYDASNRATGIPARFSGSGSGTDFTLTISSLEPEDFAVYYCQQYDNLPTFGGGTKVEIK
Consider B1, for which the binding result in test [1] is “binds”.

B2: A40.H76 (bispecific antibody)
NKG2D-binding VH: QVQLQQWGAGLLKPSETLSLTCAVYGGSFSGYYWSWIRQPPGKGLEWIGEIDHSGSTNYNPSLKSRVTISVDTSKNQFSLKLSSVTAADTAVYYCARARGPWSFDPWGQGTLVTVSS
NKG2D-binding VL: DIQMTQSPSTLSASVGDRVTITCRASQSIGSWLAWYQQKPGKAPKLLIYKASSLESGVPSRFSGSGSGTEFTLTISSLQPDDFATYYCQQYHSFYTFGGGTKVEIK
CD33-binding VH: EVQLLESGGGLVQPGGSLRLSCAASGFTFSKYTMSWVRQAPGKGLEWVSAIVGSGESTYFADSVKGRFTISRDNSKNTLYLQMNSLRAEDTAVYYCAREGGPYYDSSGYFVYYGMDVWGQGTTVTVSS
CD33-binding VL: DIQMTQSPSTLSASVGDRVTITCRASQSISSWLAWYQQKPGKAPKLLIYKASSLESGVPSRFSGSGSGTEFTLTISSLQPDDFATYYCQQYDDLPTFGGGTKVEIK
On to B2, for which, in test [1], the binding result is reported as “binds”.

B3: A40.G59 (bispecific antibody)
NKG2D-binding VH: QVQLQQWGAGLLKPSETLSLTCAVYGGSFSGYYWSWIRQPPGKGLEWIGEIDHSGSTNYNPSLKSRVTISVDTSKNQFSLKLSSVTAADTAVYYCARARGPWSFDPWGQGTLVTVSS
NKG2D-binding VL: DIQMTQSPSTLSASVGDRVTITCRASQSIGSWLAWYQQKPGKAPKLLIYKASSLESGVPSRFSGSGSGTEFTLTISSLQPDDFATYYCQQYHSFYTFGGGTKVEIK
CD33-binding VH: EVQLVESGGGLVQPGGSLRLSCAASGFTFSSYGMSWVRQAPGKGLEWVANIKQDGSEKYYVDSVKGRFTISRDNAKNSLYLQMNSLRAEDTAVYYCAREGGPYYDSSGYFVYYGMDVWGQGTTVTVSS
CD33-binding VL: DIQMTQSPSTLSASVGDRVTITCRASQSISSWLAWYQQKPGKAPKLLIYDASSLESGVPSRFSGSGSGTEFTLTISSLQPDDFATYYCQQYESFPTFGGGTKVEIK
Take B3: the binding result in test [1] is “binds”.

B4: F47.H76 (bispecific antibody)
NKG2D-binding VH: QVQLQQWGAGLLKPSETLSLTCAVYGGSFSGYYWSWIRQPPGKGLEWIGEIDHSGSTNYNPSLKSRVTISVDTSKNQFSLKLSSVTAADTAVYYCARARGPWSFDPWGQGTLVTVSS
NKG2D-binding VL: DIQMTQSPSTLSASVGDRVTITCRASQSISSWLAWYQQKPGKAPKLLIYKASSLESGVPSRFSGSGSGTEFTLTISSLQPDDFATYYCQQYDTFITFGGGTKVEIK
CD33-binding VH: EVQLLESGGGLVQPGGSLRLSCAASGFTFSKYTMSWVRQAPGKGLEWVSAIVGSGESTYFADSVKGRFTISRDNSKNTLYLQMNSLRAEDTAVYYCAREGGPYYDSSGYFVYYGMDVWGQGTTVTVSS
CD33-binding VL: DIQMTQSPSTLSASVGDRVTITCRASQSISSWLAWYQQKPGKAPKLLIYKASSLESGVPSRFSGSGSGTEFTLTISSLQPDDFATYYCQQYDDLPTFGGGTKVEIK
Take B4: in [1], the binding result is given as “binds”.

B5: F47.G59 (bispecific antibody)
NKG2D-binding VH: QVQLQQWGAGLLKPSETLSLTCAVYGGSFSGYYWSWIRQPPGKGLEWIGEIDHSGSTNYNPSLKSRVTISVDTSKNQFSLKLSSVTAADTAVYYCARARGPWSFDPWGQGTLVTVSS
NKG2D-binding VL: DIQMTQSPSTLSASVGDRVTITCRASQSISSWLAWYQQKPGKAPKLLIYKASSLESGVPSRFSGSGSGTEFTLTISSLQPDDFATYYCQQYDTFITFGGGTKVEIK
CD33-binding VH: EVQLVESGGGLVQPGGSLRLSCAASGFTFSSYGMSWVRQAPGKGLEWVANIKQDGSEKYYVDSVKGRFTISRDNAKNSLYLQMNSLRAEDTAVYYCAREGGPYYDSSGYFVYYGMDVWGQGTTVTVSS
CD33-binding VL: DIQMTQSPSTLSASVGDRVTITCRASQSISSWLAWYQQKPGKAPKLLIYDASSLESGVPSRFSGSGSGTEFTLTISSLQPDDFATYYCQQYESFPTFGGGTKVEIK
As to B5, the binding result in test [1] is listed as “binds”.

B6: A49-F3′-TriNKET-I07 (bispecific antibody, human IgG1, kappa)
chain: DIQMTQSPSTLSASVGDRVTITCRASQSISSWLAWYQQKPGKAPKLLIYEASSLESGVPSRFSGSGSGTEFTLTISSLQPDDFATYYCQQSQSYPPITFGCGTKVEIKGGGGSGGGGSGGGGSGGGGSEVQLVESGGGLVQPGGSLRLSCAASGFTFGSYWMSWVRQAPGKCLEWVATIKQDGSEKSYVDSVKGRFTISRDNAKNSLYLQMNSLRAEDTAVYYCARPLNAGELDVWGQGTMVTVSSASDKTHTCPPCPAPELLGGPSVFLFPPKPKDTLMISRTPEVTCVVVDVSHEDPEVKFNWYVDGVEVHNAKTKPREEQYNSTYRVVSVLTVLHQDWLNGKEYKCKVSNKALPAPIEKTISKAKGQPREPRVYTLPPCRDELTKNQVSLTCLVKGFYPSDIAVEWESNGQPENNYKTTPPVLVSDGSFTLYSKLTVDKSRWQQGNVFSCSVMHEALHNHYTQKSLSLSPG
heavy: EVQLVESGGGLVKPGGSLRLSCAASGFTFSSYSMNWVRQAPGKGLEWVSSISSSSSYIYYADSVKGRFTISRDNAKNSLYLQMNSLRAEDTAVYYCARGAPMGAAAGWFDPWGQGTLVTVSSASTKGPSVFPLAPSSKSTSGGTAALGCLVKDYFPEPVTVSWNSGALTSGVHTFPAVLQSSGLYSLSSVVTVPSSSLGTQTYICNVNHKPSNTKVDKKVEPKSCDKTHTCPPCPAPELLGGPSVFLFPPKPKDTLMISRTPEVTCVVVDVSHEDPEVKFNWYVDGVEVHNAKTKPREEQYNSTYRVVSVLTVLHQDWLNGKEYKCKVSNKALPAPIEKTISKAKGQPREPQVCTLPPSRDELTENQVSLTCLVKGFYPSDIAVEWESNGQPENNYKTTPPVLDSDGSFFLYSWLTVDKSRWQQGNVFSCSVMHEALHNHYTQKSLSLSPG
light: DIQMTQSPSSVSASVGDRVTITCRASQGISSWLAWYQQKPGKAPKLLIYAASSLQSGVPSRFSGSGSGTDFTLTISSLQPEDFATYYCQQGVSFPRTFGGGTKVEIKRTVAAPSVFIFPPSDEQLKSGTASVVCLLNNFYPREAKVQWKVDNALQSGNSQESVTEQDSKDSTYSLSSTLTLSKADYEKHKVYACEVTHQGLSSPVTKSFNRGEC
notes: trispecific: I07 scFv-Fc (CD33), A49 VH-CH1-Fc and A49 VL-CL (NKG2D Fab), heterodimeric IgG1 Fc (CD16); also called TriNKET derivative of I07 mAb
With B6, the 50% effective concentration (EC50 (read off the curve)) – broadly, the concentration needed to bring the measured effect to its halfway point – in [2] was about 5 µg/mL; in test [3] it was about 2 µg/mL.

B7: ADI-11815 Fab (Fab, V domains shown)
VH: QVQLVQSGAEVKKPGASVKVSCKASGYTFGTYYMHWVRQAPGQGLEWMGIINPSRGSTVYAQKFQGRVTMTRDTSTSTVYMELSSLRSEDTAVYYCARGAGYDDEDMDVWGKGTTVTVSS
VL: DIQMTQSPSSVSASVGDRVTITCRASQGIDSWLAWYQQKPGKAPKLLIYAASSLQSGVPSRFSGSGSGTDFTLTISSLQPEDFATYYCQQAHSYPLTFGGGTKVEIK
notes: Fab fragment; also called Ab7
Take B7: the equilibrium dissociation constant (Kd) in test [4], in [5], in test [7] and in test [8] was 0.23 nM each time. Further, the koff in test [4], in [5], in [7] and in test [8] was 7.91e-05 s⁻¹ in each case. The kon in test [4], in test [5], in [7] and in test [8] was 339000 M⁻¹ s⁻¹ each time. Besides, the binding result in [6] was “no binding (tested: 100 nM)”; with V domain of human CD33, “no binding”; with C domain of human CD33, “no binding”.
